In FireProtDB:
Where “and” joins values, the source holds several entries; their conditions need not be identical. Equal entries are not always repeated.

Conditions: whole UniProt chain shown
[1] = Bacillus subtilis (strain 168), pH 6, 27 °C, Thermal, CD, sodium phosphate 50 mM, reversible: yes
[2] = Bacillus amyloliquefaciens, pH 7, 25 °C, GdnHCl, CD, phosphate 20 mM
[3] = Bacillus amyloliquefaciens, pH 8, 25 °C, Urea, Fluorescence, Tris-HCl 50 mM, reversible: yes
[4] = Bacillus amyloliquefaciens, pH 8, Thermal, CD, Sodium phosphate 2 mM, reversible: yes
[5] = Bacillus amyloliquefaciens, pH 8, Thermal, DSC, Sodium phosphate 10 mM, reversible: yes
[6] = Bacillus amyloliquefaciens, pH 9.5, Thermal, DSC, Sodium phosphate 10 mM, reversible: yes
[7] = Bacillus amyloliquefaciens, pH 6, 25 °C, GdnHCl, Fluorescence, MES 50 mM, CaCl2 5 mM, reversible: no
[8] = Aquifex aeolicus (strain VF5), pH 7, 20 °C, GdnHCl, Fluorescence, Sodium phosphate sodium chloride 25 mM 100 mM
[9] = Bacillus licheniformis (strain ATCC 14580 / DSM 13 / JCM 2505 / CCUG 7422 / NBRC 12200 / NCIMB 9375 / NCTC 10341 / NRRL NRS-1264 / Gibson 46…, pH 7, Thermal, CD, Hepes 10 mM, reversible: Yes

B1: Chemotaxis protein CheY wild type, P24072 (protein)
chain: MAHRILIVDDAAFMRMMIKDILVKNGFEVVAEAENGAQAVEKYKEHSPDLVTMDITMPEMDGITALKEIKQIDAQARIIMCSAMGQQSMVIDAIQAGAKDFIVKPFQADRVLEAINKTLN
In the case of B1, the “heat capacity change of unfolding” value [1] is reported as 2.34 kcal/mol/K, the unfolding free energy [1] is reported as 3.14 kcal/mol and the Tm (Bacillus subtilis (strain 168), pH 6, Thermal, CD, sodium phosphate 50 mM, reversible: yes) is reported as 54.9 °C.

B2: Cytidine deaminase wild type, P19079 (protein)
chain: MNRQELITEALKARDMAYAPYSKFQVGAALLTKDGKVYRGCNIENAAYSMCNCAERTALFKAVSEGDTEFQMLAVAADTPGPVSPCGACRQVISELCTKDVIVVLTNLQGQIKEMTVEELLPGAFSSEDLHDERKL
With B2 the unfolding free energy (Bacillus subtilis (strain 168), pH 7, 25 °C, GdnHCl, CD, potassium phosphate 20 mM, reversible: no) was 2.5 kcal/mol.

B3: Serine protease 1 wild type, P00760 (protein)
chain: MKTFIFLALLGAAVAFPVDDDDKIVGGYTCGANTVPYQVSLNSGYHFCGGSLINSQWVVSAAHCYKSGIQVRLGEDNINVVEGNEQFISASKSIVHPSYNSNTLNNDIMLIKLKSAASLNSRVASISLPTSCASAGTQCLISGWGNTKSSGTSYPDVLKCLKAPILSDSSCKSAYPGQITSNMFCAGYLEGGKDSCQGDSGGPVVCSGKLQGIVSWGSGCAQKNKPGVYTKVCNYVSWIKQTIASN
Protein B3 has an unfolding free energy (Bos taurus, pH 5.8, 25 °C, GdnHCl, Fluorescence, MES 0.1 M) of 10.9 kcal/mol.

B4: Barstar wild type, P11540 (protein)
chain: MKKAVINGEQIRSISDLHQTLKKELALPEYYGENLDALWDCLTGWVEYPLVLEWRQFEQSKQLTENGAESVLQVFREAKAEGCDITIILS
For B4, the “denaturant midpoint (higher = more stable)” value (shortened to “denaturant midpoint”) [2] was 1.92 M, the unfolding free energy [2] was 4.6 kcal/mol and the unfolding free energy (Bacillus amyloliquefaciens, pH 8, 10 °C, Urea, CD, Tris Cl 50 mM, KCl 100 mM) was 3 kcal/mol. The denaturant m value [3] was 1.25 kcal/mol/M, the “denaturant midpoint” value [3] was 3.87 M and the unfolding free energy [3] was 4.84 kcal/mol. The Tm [4] was 70 °C, the “heat capacity change of unfolding” value [4] was 1.49 kcal/mol/K and the “unfolding enthalpy (van 't Hoff)” value [4] was 69.7 kcal/mol. For the same protein, the Tm [5] was 69.7 °C, the “heat capacity change of unfolding” value [5] was 1.41 kcal/mol/K and the “unfolding enthalpy (calorimetric)” value [5] was 42.6 kcal/mol. For the same protein, the “unfolding enthalpy (van 't Hoff)” value [5] was 60 kcal/mol, the Tm [6] was 68.7 °C and the “heat capacity change of unfolding” value [6] was 1.36 kcal/mol/K. For the same protein, the “unfolding enthalpy (calorimetric)” value [6] was 41.2 kcal/mol and the “unfolding enthalpy (van 't Hoff)” value [6] was 56.1 kcal/mol.

B5: Beta-glucanase wild type, P07980 (protein)
chain: MKRVLLILVTGLFMSLCGITSSVSAQTGGSFFEPFNSYNSGLWQKADGYSNGDMFNCTWRANNVSMTSLGEMRLALTSPSYNKFDCGENRSVQTYGYGLYEVRMKPAKNTGIVSSFFTYTGPTEGTPWDEIDIEFLGKDTTKVQFNYYTNGAGNHEKFADLGFDAANAYHTYAFDWQPNSIKWYVDGQLKHTATTQIPAAPGKIMMNLWNGTGVDDWLGSYNGVNPIYAHYDWMRYRKK
With B5 the “denaturant midpoint” value [7] was 2.73 M and 2.84 M and the unfolding free energy [7] was 12.9 kcal/mol and 4.97 kcal/mol.

B6: 3-isopropylmalate dehydrogenase wild type, P05645 (protein)
chain: MKKRIALLPGDGIGPEVLESATDVLKSVAERFNHEFEFEYGLIGGAAIDEHHNPLPEETVAACKNADAILLGAVGGPKWDQNPSELRPEKGLLSIRKQLDLFANLRPVKVFESLSDASPLKKEYIDNVDFVIVRELTGGLYFGQPSKRYVNTEGEQEAVDTLFYKRTEIERVIREGFKMAAARKGKVTSVDKANVLESSRLWREVAEDVAQEFPDVKLEHMLVDNAAMQLIYAPNQFDVVVTENMFGDILSDEASMLTGSLGMLPSASLSSSGLHLFEPVHGSAPDIAGKGMANPFAAILSAAMLLRTSFGLEEEAKAVEDAVNKVLASGKRTRDLARSEEFSSTQAITEEVKAAIMSENTISNV
B6 gave a Tm (Bacillus subtilis (strain 168), pH 7.6, Thermal, CD, Potassium phosphate 20 mM, reversible: yes) of 56 °C.

B7: wild type, O66926 (protein)
chain: MKKFLIPFLTFLGFTFSSELIPCKVVRVVDGDTFRCVPEGKSRFIKVRLMGIDTLETNNMKKGMGQAKWFYGGIRTVKEFGKKAKEFSKRLIDKKVVYLELPVRKMDNNGRYLAYVWLDEYRNKMLNLLLVKEGLAFVFIIPPQVKYLKELGEAQEEAYKDRRGFWKYFKGE
For B7, the denaturant m value [8] was 1.02 kcal/mol/M, the “denaturant midpoint” value [8] was 0.42 M and the unfolding free energy [8] was 2.8 kcal/mol.

B8: Protein GrpE wild type, Q65H53 (protein)
chain: MAEEKQNEELNEQEELNETEAETAEAEQTAAEADAPAEETQTEMLEKQLKELQERLEEKENKLLRVQADFENYKRRARLDLEAAEKYRSQRIISDLLPALDNFERALQIDPDNEQTKSLLQGMEMVHRQILEALKNEGVEQIPSVGEQFDPNMHQAVMQVEDEAYESNAVVEELQKGYKLKDRVIRPSMVKVNQ
In the case of B8, the Tm [9] is reported as 52 °C and the “unfolding enthalpy (van 't Hoff)” value [9] is reported as 99.9 kcal/mol.

B9: FMN-dependent NADPH-azoreductase wild type, O07529 (protein)
chain: MNMLVINGTPRKHGRTRIAASYIAALYHTDLIDLSEFVLPVFNGEAEQSELLKVQELKQRVTKADAIVLLSPEYHSGMSGALKNALDFLSSEQFKYKPVALLAVAGGGKGGINALNNMRTVMRGVYANVIPKQLVLDPVHIDVENATVAENIKESIKELVEELSMFAKAGNPGV
For B9, the Tm (Bacillus subtilis (strain 168), pH 7.5, Thermal, CD, Tris-HCl 100 mM, reversible: No) was 86.5 °C.

B10: Cytidine deaminase wild type, Q9R2S1 (protein)
chain: MEIEQLIVEAKKARELAYVPYSKFPVGAALLTKGGSVYRGCNIENAAYSVCNCAERTALFKAYSEGEKEFTALAVIADTPRPVPPCGACRQVIAELCHGDMKVILANLKGDVKVMTVSELLPEAFSAEDLHA
B10 showed an unfolding free energy (Bacillus caldolyticus, pH 7, 25 °C, GdnHCl, CD, potassium phosphate 20 mM, reversible: no) of 4.3 kcal/mol.
